Holding throughout (assay): cell-based or functional assay
Assay [1] has as its target adenylyl cyclase (AC) in rat spinal cord lysates/membranes (rat).
Assay [2] deals with adenylyl cyclase (AC) in rat dorsal root ganglia (DRG) lysates (rat).
For assay [3], the target named is adenylyl cyclase (AC) in rat spinal cord lysates/membranes (rat). This is another data set of the same source.

Read-outs that look alike come from different tables or passages of the source.

With “PAM (Protein Associated with Myc), full length, purified from HeLa cells (from UniProt O75592 1-4678)”, in assay [1], the inhibition of Gαs-stimulated AC activity, spinal cord lysates of animals treated for 1 hour with formalin, 30 nM PAM was found to be 25%; the inhibition of Gαs-stimulated AC activity, spinal cord lysates of control animals, 30 nM PAM was found to be 49%; the inhibition of Gαs-stimulated AC activity, spinal cord lysates of rats 96 hours after zymosan injection, 30 nM PAM turned out to be 70%; the inhibition of Gαs-stimulated AC activity, spinal cord preparations of zymosan-treated animals came to 75%. The same substance yielded an inhibition of Gαs-stimulated AC activity, DRG lysates, 30 nM PAM in assay [2] of 32%. In assay [3], this substance came in with an inhibition of Gαs-stimulated AC activity, spinal cord lysates of control animals, 30 nM PAM of 50%.
